# In US20200308257A1 (VISTERRA, published 2020):
# Where “and” joins values, the source holds several entries; their conditions need not be identical. Equal values may be shown once.
# How the values were obtained:
# Assay in all cases: cell-based or functional assay
# [1] = target: T1, hemagglutinin (HA) of influenza A/Hong Kong/4801/2014 (H3N2) (influenza A virus (H3N2))
# [2] = target: hemagglutinin (HA) of influenza A/California/04/2009 (H1N1) (influenza A virus (H1N1))
# [3] = target: hemagglutinin (HA) of influenza A/Spain/2604004/2018 (H3N2) (influenza A virus (H3N2))
# [4] = target: hemagglutinin (HA) of influenza A/France/1306001/2018 (H1N1) (influenza A virus (H1N1))
# [5] = target: hemagglutinin (HA) of influenza A/Florida/71268/2017 (H3N2) (influenza A virus (H3N2))
# [6] = target: hemagglutinin (HA) of influenza A/Georgia/0720001/2018 (H1N1) (influenza A virus (H1N1))
# [7] = target: hemagglutinin (HA) of influenza A/Florida/70702/2017 (H1N1) (influenza A virus (H1N1))
# [8] = target: hemagglutinin (HA) of influenza A/Thailand/2702008/2018 (H1N1) (influenza A virus (H1N1))
# [9] = target: hemagglutinin (HA) of influenza A/France/1302001/2018 (H1N1) (influenza A virus (H1N1))
# [10] = target: hemagglutinin (HA) of influenza A/Latvia/0303004/2018 (H3N2) (influenza A virus (H3N2))
# [11] = target: hemagglutinin (HA) of influenza A/France/1307001/2018 (H1N1) (influenza A virus (H1N1))
# [12] = target: hemagglutinin (HA) of influenza A/Pennsylvania/0725005/2018 (H3N2) (influenza A virus (H3N2))
# [13] = target: hemagglutinin (HA) of influenza A/Georgia/0720003/2018 (H3N2) (influenza A virus (H3N2))
# [14] = target: hemagglutinin (HA) of influenza A/Thailand/2702006/2018 (H3N2) (influenza A virus (H3N2))
# [15] = target: hemagglutinin (HA) of influenza A/Brisbane/02/2018 (H1N1) (influenza A virus (H1N1))
# [16] = target: hemagglutinin (HA) of influenza A/Belarus/1003001/2018 (H3N2) (influenza A virus (H3N2))
# [17] = target: hemagglutinin (HA) of influenza A/Bulgaria/0106011/2018 (H3N2) (influenza A virus (H3N2))
# [18] = target: hemagglutinin (HA) of influenza A/Latvia/30314/2017 (H3N2) (influenza A virus (H3N2))
# [19] = target: hemagglutinin (HA) of influenza A/Singapore/2401001/2018 (H3N2) (influenza A virus (H3N2))
# [20] = target: hemagglutinin (HA) of influenza A/Malay sia/1701001/2018 (H1N1) (influenza A virus (H1N1))
# [21] = target: hemagglutinin (HA) of influenza A/Bulgaria/10101/2017 (H3N2) (influenza A virus (H3N2))
# [22] = target: T2, hemagglutinin (HA) of influenza A/Michigan/45/2015 (H1N1)pdm09 (influenza A virus (H1N1))
# [23] = target: hemagglutinin (HA) of influenza A/Ohio/0717002/2018 (H3N2) (influenza A virus (H3N2))
# [24] = target: hemagglutinin (HA) of influenza A/Florida/71210/2017 (H3N2) (influenza A virus (H3N2))
# [25] = target: hemagglutinin (HA) of influenza A/Pennsylvania/0725006/2018 (H3N2) (influenza A virus (H3N2))
# [26] = target: hemagglutinin (HA) of influenza A/Switzerland/8060/2017 (H3N2) (influenza A virus (H3N2))
# [27] = target: hemagglutinin (HA) of influenza A/Florida/70327/2017 (H3N2) (influenza A virus (H3N2))
# [28] = target: T1, hemagglutinin (HA) of influenza A/Hong …; remark: listed apart in the source
# [29] = target: hemagglutinin (HA) of influenza A/Latvia/0303005/2018 (H1N1) (influenza A virus (H1N1))
# [30] = target: hemagglutinin (HA) of influenza A/Latvia/0304001/2018 (H1N1) (influenza A virus (H1N1))
# [31] = target: hemagglutinin (HA) of influenza A/North Carolina/71330/2017 (H3N2) (influenza A virus (H3N2))
# [32] = target: hemagglutinin (HA) of influenza A/Singapore/INFIMH-16 0019/2016 (H3N2) (influenza A virus (H3N2))
# [33] = target: hemagglutinin (HA) of influenza A/California/7/2009 (H1N1) (influenza A virus (H1N1))
# [34] = target: hemagglutinin (HA) of influenza A/Florida/70604/2017 (H3N2) (influenza A virus (H3N2))
# [35] = target: hemagglutinin (HA) of influenza A/Spain/2602001/2018 (H1N1) (influenza A virus (H1N1))
# [36] = target: hemagglutinin (HA) of influenza A/Spain/2609001/2018 (H1N1) (influenza A virus (H1N1))
# [37] = target: hemagglutinin (HA) of influenza A/Kansas/14/2017 (H3N2) (influenza A virus (H3N2))
# [38] = target: hemagglutinin (HA) of influenza A/Serbia/0502016/2018 (H1N1) (influenza A virus (H1N1))
# [39] = target: hemagglutinin (HA) of influenza A/Serbia/0502013/2018 (H1N1) (influenza A virus (H1N1))
# [40] = target: hemagglutinin (HA) of influenza A/Sydney/0903001/2018 (H3N2) (influenza A virus (H3N2))
# [41] = target: hemagglutinin (HA) of influenza A/Florida/70609/2017 (H3N2) (influenza A virus (H3N2))
# [42] = target: hemagglutinin (HA) of influenza A/Florida/70303/2017 (H3N2) (influenza A virus (H3N2))
# [43] = target: hemagglutinin (HA) of influenza A/Georgia/0720004/2018 (H3N2) (influenza A virus (H3N2))
# [44] = target: hemagglutinin (HA) of influenza A/Latvia/30101/2017 (H3N2) (influenza A virus (H3N2))
# [45] = target: T2, hemagglutinin (HA) of influenza …; remark: listed apart in the source
binder,measurement,setting,value
"VIS410 (antibody, V domains shown) VH: QVQLLETGGGLVKPGQSLKLSCAASGFTFTSYAMHWVRQPPGKGLEWVAVVSYDGNYKYYADSVQGRFTISRDNSKNTLYLQMNSLRAEDTAVYYCAKDSRLRSLLYFEWLSQGYFNPWGQGTTLTVSS VL: DIQMTQSPSSLSASVGDRVTITCRSSQSITFDYKNYLAWYQQKPGKAPKLLIYWGSYLESGVPSRFSGSGSGTDFTLTISSLQPEDFATYYCQQHYRTPPSFGQGTKVEIK","EC50, NP ELISA infection assay, both assay formats",[1],0.01 µM and 0.02 µM
same,"EC50, virus infection of MDCK-London cells (NP ELISA microneutralization)",[1],~0.01 µM and ~1.5 µg/ml
same,"EC50, virus infection of MDCK-London cells (NP ELISA microneutralization)",[2],~0.006 µM and ~0.9 µg/ml
same,"IC50, phenotypic IC50 assay (virus infection of MDCK cells)",[3],0.92 µg/mL
same,"IC50, phenotypic IC50 assay (virus infection of MDCK cells)",[4],0.91 µg/mL
same,"IC50, phenotypic IC50 assay (virus infection of MDCK cells)",[5],3.14 µg/mL
same,"IC50, phenotypic IC50 assay (virus infection of MDCK cells)",[6],0.71 µg/mL
same,"IC50, phenotypic IC50 assay (virus infection of MDCK cells)",[7],0.41 µg/mL
same,"IC50, phenotypic IC50 assay (virus infection of MDCK cells)",[8],0.55 µg/mL
same,"IC50, phenotypic IC50 assay (virus infection of MDCK cells)",[9],0.86 µg/mL
same,"IC50, phenotypic IC50 assay (virus infection of MDCK cells)",[10],4.47 µg/mL
same,"IC50, phenotypic IC50 assay (virus infection of MDCK cells)",[11],0.86 µg/mL
same,"IC50, phenotypic IC50 assay (virus infection of MDCK cells)",[12],2.2 µg/mL
same,"IC50, phenotypic IC50 assay (virus infection of MDCK cells)",[13],0.49 µg/mL
same,"IC50, phenotypic IC50 assay (virus infection of MDCK cells)",[14],1.13 µg/mL
same,"IC50, phenotypic IC50 assay (virus infection of MDCK cells)",[15],0.55 µg/mL
same,"IC50, phenotypic IC50 assay (virus infection of MDCK cells)",[16],1.26 µg/mL
same,"IC50, phenotypic IC50 assay (virus infection of MDCK cells)",[17],1.67 µg/mL
same,"IC50, phenotypic IC50 assay (virus infection of MDCK cells)",[18],1 µg/mL
same,"IC50, phenotypic IC50 assay (virus infection of MDCK cells)",[19],1.17 µg/mL
same,"IC50, phenotypic IC50 assay (virus infection of MDCK cells)",[20],0.4 µg/mL
same,"IC50, phenotypic IC50 assay (virus infection of MDCK cells)",[21],0.22 µg/mL
same,"IC50, phenotypic IC50 assay (virus infection of MDCK cells)",[22],0.89 µg/mL
same,"IC50, phenotypic IC50 assay (virus infection of MDCK cells)",[23],0.81 µg/mL
same,"IC50, phenotypic IC50 assay (virus infection of MDCK cells)",[24],0.97 µg/mL
same,"IC50, phenotypic IC50 assay (virus infection of MDCK cells)",[25],1.5 µg/mL
same,"IC50, phenotypic IC50 assay (virus infection of MDCK cells)",[26],1.07 µg/mL
same,"IC50, phenotypic IC50 assay (virus infection of MDCK cells)",[27],0.67 µg/mL
same,"IC50, phenotypic IC50 assay (virus infection of MDCK cells)",[28],1.65 µg/mL
same,"IC50, phenotypic IC50 assay (virus infection of MDCK cells)",[29],0.87 µg/mL
same,"IC50, phenotypic IC50 assay (virus infection of MDCK cells)",[30],0.57 µg/mL
same,"IC50, phenotypic IC50 assay (virus infection of MDCK cells)",[31],0.92 µg/mL
same,"IC50, phenotypic IC50 assay (virus infection of MDCK cells)",[32],1.35 µg/mL
same,"IC50, phenotypic IC50 assay (virus infection of MDCK cells)",[33],0.52 µg/mL
same,"IC50, phenotypic IC50 assay (virus infection of MDCK cells)",[34],1.23 µg/mL
same,"IC50, phenotypic IC50 assay (virus infection of MDCK cells)",[35],0.42 µg/mL
same,"IC50, phenotypic IC50 assay (virus infection of MDCK cells)",[36],0.43 µg/mL
same,"IC50, phenotypic IC50 assay (virus infection of MDCK cells)",[37],2.65 µg/mL
same,"IC50, phenotypic IC50 assay (virus infection of MDCK cells)",[38],0.37 µg/mL
same,"IC50, phenotypic IC50 assay (virus infection of MDCK cells)",[39],0.67 µg/mL
same,"IC50, phenotypic IC50 assay (virus infection of MDCK cells)",[40],1.49 µg/mL
same,"IC50, phenotypic IC50 assay (virus infection of MDCK cells)",[41],2.41 µg/mL
same,"IC50, phenotypic IC50 assay (virus infection of MDCK cells)",[42],0.34 µg/mL
same,"IC50, phenotypic IC50 assay (virus infection of MDCK cells)",[43],0.97 µg/mL
same,"IC50, phenotypic IC50 assay (virus infection of MDCK cells)",[44],0.28 µg/mL
same,"EC50 (µM) - Replicate 1, CPE assay",[45],0.013 µM
same,"EC50 (µM) - Replicate 2, CPE assay",[45],0.011 µM
